The test addresses Trypanosoma evansi mevalonate kinase (TeMVK), N-terminal 6xHis-tagged recombinant (Trypanosoma evansi). The test is described as follows: SEC; Superdex 200 16/600, 30 mM glycine pH 9.0, 150 mM NaCl; TeMVK expressed in autoinduction medium ZYM5052; sizes estimated from calibration with gel filtration standard.

Values joined by “and” are separate entries in the source; they are usually repeats but may differ in a detail not shown here. Equal values may be shown once.

Usually stoichiometry N stands for a count of units in the complex or per binding partner.

Turning to “Trypanosoma evansi mevalonate kinase (TeMVK), N-terminal 6xHis-tagged recombinant (enzyme)”, the stoichiometry N is 2 and 4.

Source of the values: publication PMC6048237.
